Test results taken from PMC7835342.

What was measured:
HxlR-K13A = HxlR-K13A (Bacillus subtilis 168, UniProt P42406 1-120, K13A); experiment: EMSA; no FA; higher basal binding than WT; EMSA: protein preincubated +/- FA (1 mM in Methods, 0.6 mM in legends) in 20 mM HEPES pH 7.5, 300 mM NaCl, 1-2 h, 37 C; then 50 nM dsDNA in 20 mM HEPES pH 7.0
HxlR-WT [1] = target: T1, HxlR-WT (Bacillus subtilis 168, UniProt P42406 1-120); experiment: EMSA; FA-treated (0.6 mM FA in text/legend; 1 mM in Methods); DNA binding enhanced; EMSA: protein preincubated +/- FA (1 mM in Methods, 0.6 mM in legends) in 20 mM HEPES pH 7.5, 300 mM NaCl, 1-2 h, 37 C; then 50 nM dsDNA in 20 mM HEPES pH 7.0
HxlR-WT [2] = target: T1, HxlR-WT; experiment: X-ray crystallography (2.9 A); 1 mM FA-treated protein; Cys11-CH2-Lys13 methylene bridge; 50 mM MgCl2 in crystallization; EMSA: protein preincubated +/- FA (1 mM in Methods, 0.6 mM in legends) in 20 mM HEPES pH 7.5, 300 mM NaCl, 1-2 h, 37 C; then 50 nM dsDNA in 20 mM HEPES pH 7.0

| Binder | binding result (HxlR-K13A) | binding result (HxlR-WT [1]) | binding result (HxlR-WT [2]) |
| --- | --- | --- | --- |
| BRH (hxlAB promoter EMSA probe) (dsDNA) DNA 1: CCTCACAGTATCCTCCAAGTAACTTGTTGACTTCAAAGTGCCTACTTCTC DNA 2: GAGAAGTAGGCACTTTGAAGTCAACAAGTTACTTGGAGGATACTGTGAGG | binds | binds | – |
| 20 bp palindromic crystallization DNA (dsDNA) DNA 1: CAGTATCCTCGAGGATACTG DNA 2: CAGTATCCTCGAGGATACTG | – | – | binds |
